Data on five molecules can be found in US20240083986A1 (published 2024).

The term Kd denotes the equilibrium constant for the complex coming apart. High values mean lower affinity, low ones higher affinity. One may read the koff as the first-order rate constant of dissociation. Low values mean slow dissociation, high ones fast dissociation. As a reminder, the kon is the second-order rate constant of association. Lower therefore signals slower complex formation. Usually t½ stands for the time needed for the level to fall by half in the phase considered. A lower t½ goes with rapid decline.

The target in assay [1] is T1, natural Bet v 1 (Betula verrucosa (Betula pendula), UniProt P15494 2-160).
T1 construct: bought natural protein (Indoor Biotechnologies #NA-BV1-1); also called nBet v 1; Biotinylated Bet v 1
T1 chain: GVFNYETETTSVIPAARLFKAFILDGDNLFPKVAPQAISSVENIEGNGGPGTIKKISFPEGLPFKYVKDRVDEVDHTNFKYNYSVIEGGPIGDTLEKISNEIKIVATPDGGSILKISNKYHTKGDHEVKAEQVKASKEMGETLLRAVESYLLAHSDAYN
Kind of assay: blocking ELISA, biotin nBet v 1 to captured IgE, donor 26532-CC.

Assay [2] deals with T1, natural Bet v 1. Kind of assay: blocking ELISA, biotin nBet v 1 to captured IgE, donor 25609-MS. Background: An ELISA detects its analyte on a solid surface through an enzyme-linked reagent.
Assay [3] concerns the target T1, natural Bet v 1. Kind of assay: dose-response blocking ELISA, biotin nBet v 1 to captured IgE, donor 25340-RR.
Assay [4] addresses T1, natural Bet v 1. Kind of assay: blocking ELISA, biotin nBet v 1 to captured IgE, donor 23939-MH.
Assay [5] deals with T1, natural Bet v 1. Briefly: blocking ELISA, biotin nBet v 1 to captured IgE, donor 25340-RR.
The target of assay [6] is T1, natural Bet v 1. Briefly: blocking ELISA, biotin nBet v 1 to captured IgE, donor 22627-MN.
Assay [7] has as its target T1, natural Bet v 1. Briefly: dose-response blocking ELISA, biotin nBet v 1 to captured IgE, donor 23939-MH.
For assay [8], the target named is T1, natural Bet v 1. Briefly: blocking ELISA, biotin nBet v 1 to captured IgE, donor 29718-MW.
Assay [9] has as its target T1, natural Bet v 1. Briefly: blocking ELISA, biotin nBet v 1 to captured IgE, donor 23658-MD.
For assay [10], the target named is T1, natural Bet v 1. Briefly: blocking ELISA, biotin nBet v 1 to captured IgE, donor 23035-BL.
Assay [11] concerns the target T1, natural Bet v 1. Briefly: dose-response blocking ELISA, biotin nBet v 1 to captured IgE, donor 25609-MS.
For assay [12], the target named is T1, natural Bet v 1. Briefly: blocking ELISA, biotin nBet v 1 to captured IgE, donor 25414-CW.
Assay [13] has as its target T1, natural Bet v 1. Briefly: blocking ELISA, biotin nBet v 1 to captured IgE, donor 25299-RJ.
Assay [14] concerns the target T2, Apple (Mal d 1, MyBiosource, Cat #MBS1224919) (Apple, UniProt P43211 2-159, limits assumed).
T2 construct: Bought reagent
T2 sequence (looked up): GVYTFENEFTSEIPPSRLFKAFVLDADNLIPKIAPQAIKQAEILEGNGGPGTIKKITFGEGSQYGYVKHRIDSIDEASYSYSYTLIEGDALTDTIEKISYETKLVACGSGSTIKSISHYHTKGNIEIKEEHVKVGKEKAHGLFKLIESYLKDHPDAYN
Briefly: SPR Biacore, 25C. (In general: In SPR one partner is held on a chip, and binding of the other changes the refractive index at the surface.)

Assay [15] has as its target T3, Celery (Api g 1, MyBiosource, Cat #MBS1171376) (Celery, UniProt P49372 1-154, limits assumed).
T3 construct: Bought reagent
T3 sequence (looked up): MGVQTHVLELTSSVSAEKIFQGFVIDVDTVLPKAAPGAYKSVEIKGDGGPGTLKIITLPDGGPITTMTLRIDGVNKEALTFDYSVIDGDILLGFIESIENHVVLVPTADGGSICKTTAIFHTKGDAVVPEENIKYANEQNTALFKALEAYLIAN
Kind of assay: SPR Biacore, 25C.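 Further: binding of related allergens to purified monoclonal anti-Bet v 1 antibodies by surface plasmon resonance in HEPES-buffered saline pH 7.4, kinetics fitted to a 1:1 model with mass transport.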

The target in assay [16] is T4, Alder (Aln g 1, MyBiosource, Cat #MBS1041484) (Alder, UniProt P38948 2-160, limits assumed).
T4 construct: Bought reagent
T4 sequence (looked up): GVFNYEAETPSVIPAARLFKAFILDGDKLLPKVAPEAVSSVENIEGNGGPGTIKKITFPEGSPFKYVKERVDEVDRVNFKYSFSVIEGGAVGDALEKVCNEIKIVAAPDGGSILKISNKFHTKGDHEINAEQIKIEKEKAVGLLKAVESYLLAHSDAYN
Kind of assay: SPR Biacore, 25C.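 Further: binding of related allergens to purified monoclonal anti-Bet v 1 antibodies by surface plasmon resonance in HEPES-buffered saline pH 7.4, kinetics fitted to a 1:1 model with mass transport.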

Assay [17] addresses T5, natural Bet v 1 (Indoor, Cat #NA-BV1-1) (Betula verrucosa (European white birch, …, UniProt P15494 2-160)).
T5 construct: Bought natural protein purified from birch pollen; also called nBet v 1
T5 sequence: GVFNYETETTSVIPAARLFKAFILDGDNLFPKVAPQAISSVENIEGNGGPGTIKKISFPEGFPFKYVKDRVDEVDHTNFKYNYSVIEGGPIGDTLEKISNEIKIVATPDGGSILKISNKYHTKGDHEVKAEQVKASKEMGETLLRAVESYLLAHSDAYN
Kind of assay: SPR Biacore, mAb captured on anti-hFc, 37C.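 Further: purified anti-Bet v 1 monoclonal antibodies, HBS-ET running buffer pH 7.4, rate constants from 1:1 model fit with mass transport limitation, KD and t½ calculated from kinetic constants.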

Assay [18] concerns the target T5, natural Bet v 1 (Indoor, Cat #NA-BV1-1). Kind of assay: SPR Biacore, mAb captured on anti-hFc, 25C.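 Further: rate constants from sensorgrams fitted to a 1:1 model with mass transport limitation, KD and t½ derived from kinetic constants, run in HBS-ET buffer at pH 7.4.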
In assay [19] the target is T6, mutant Bet v 1-MMH (Betula verrucosa (European white birch, …)).
T6 construct: also called CHO produced recombinant Bet v 1 containing a S85A mutation with a C-terminal myc-myc hexahistidine tag
T6 chain: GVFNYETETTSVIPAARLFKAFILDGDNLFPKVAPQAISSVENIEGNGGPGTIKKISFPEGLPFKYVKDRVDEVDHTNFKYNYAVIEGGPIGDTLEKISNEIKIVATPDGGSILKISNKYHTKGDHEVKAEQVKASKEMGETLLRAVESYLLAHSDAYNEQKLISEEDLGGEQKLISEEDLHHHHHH
Kind of assay: BLI Octet HTX, mutant Bet v 1-MMH captured on anti-Penta-His tips, 25C. In general terms: BLI is a label-free optical method that tracks binding on a fibre tip over time.

Assay [20] deals with T7, mutant Bet v 1-MMH (Betula verrucosa (Betula pendula)).
T7 construct: CHO produced; also called recombinant mutant Bet v 1 with C-terminal myc-myc-hexahistidine tag
T7 chain: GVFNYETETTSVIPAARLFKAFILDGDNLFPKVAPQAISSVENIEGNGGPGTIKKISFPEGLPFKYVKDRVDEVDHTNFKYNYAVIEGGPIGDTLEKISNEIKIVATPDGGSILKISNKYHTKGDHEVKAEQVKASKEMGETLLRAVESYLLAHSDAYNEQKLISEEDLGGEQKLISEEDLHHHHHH
Briefly: BLI Octet, mutant Bet v 1-MMH captured on anti-Penta-His tips.

Assay [21] addresses T5, natural Bet v 1 (Indoor, Cat #NA-BV1-1). Kind of assay: cell-based or functional assay.

B1: H4H16987P (antibody, human IgG4 S228P, kappa, V domains shown)
VH: EVQLVESGGGLVQPGGSLRLSCAASGFTVSSNSMSWVRQAPGEGLEWVSVIFSGGITYYSDSVKGRFTISRHNSKNTLYLQMNSLRTEDTAVYYCARHSNWNFDAFDIWGQGTMVTVSS
VL: DIQMTQSPSSLSASVGDRVTITCRASQSFDTYLNWYQQKPGKAPNLLIYATSSLQSGVPSRFSGSGSGTDFTLTISSLQPEDFGTYYCQQSYSIPYTFGQGTKLEIKR
notes: fully human, human IgG4 Fc (H4H prefix); also called MAB4
On to B1, for which the “Percent Blocking (at 1 µg/mL each antibody)” value (“Percent Blocking” for short) stood at 4% in assay [1]; 16% in assay [2]; 11.1% in assay [3]; 16% in assay [4]; 15% in assay [5]; 12% in assay [6]. Besides, the “Percent Blocking” value was 19.6% in [7]; 13% in [8]; 27% in assay [9]; -46% in [10]; 21.6% in [11]; -4% in [12]. In [13], the “Percent Blocking” value turned out to be 9%.

B2: H4H16943P (antibody, human IgG4, V domains shown)
VH: EVQLVESGGGLVQPGGSLRLSCTASGFMSSMYWMSWVRQAPGKGLEWVSNIKQDGTEKNYVESVKGRFTISRDNAKNSLYLQINSLRGEDTAVYYCARDLYSSSSGYYYYGLDVWGQGTTVTVSS
VL: DIVMTQSPLSLPVTPGEPASISCRSSQSLLHSNKYNYLDWYLQKPGQSPQLLIYLSSNRASGVPDRFSGSGSGTEFTLKISRVEAEDVGIYYCMQALHTPLTFGGGTKVEIK
For B2, the binding result is recorded as “no binding (tested: 100 nM)” in assay [14], “no binding (tested: 100 nM)” in assay [15], “no binding (tested: 100 nM)” in assay [16] and “no binding (tested: 50 µg/mL)” in assay [19]. Also, the entries for the “100 nM natural Bet v 1 Bound (RU)” value in assay [17] and in assay [18] were 88 RU and 71 RU, respectively. In addition, the Kd in [17] came out at 4.89 nM; in assay [18], 1.4 nM. The koff in assay [17] worked out at 0.00127 s⁻¹; in assay [18], 0.00023 s⁻¹. Moreover, the on-rate (kon) in assay [17] turned out to be 260000 M⁻¹ s⁻¹; in assay [18], 164000 M⁻¹ s⁻¹. Moreover, the t½ in assay [17] was 9.1 min; in assay [18], 50 min.

B3: H4H16943P (antibody, human IgG4, V domains shown)
VH: EVQLVESGGGLVQPGGSLRLSCTASGFMSSMYWMSWVRQAPGKGLEWVSNIKQDGTEKNYVESVKGRFTISRDNAKNSLYLQINSLRGEDTAVYYCARDLYSSSSGYYYYGLDVWGQGTTVTVSS
VL: DIVMTQSPLSLPVTPGEPASISCRSSQSLLHSNKYNYLDWYLQKPGQSPQLLIYLSSNRASGVPDRFSGSGSGTEFTLKISRVEAEDVGIYYCMQALHTPLTFGGGTKVEIK
notes: human IgG4 Fc (H4H prefix)
With B3, the binding result in assay [20] is on record as “no binding (tested: 50 µg/mL)”.

B4: H4H17082P2 (antibody, human IgG4 S228P, kappa, V domains shown)
VH: QVQLVQSGAEVKKPGASVKVSCKASGYTFISYNIFWVRQATGQGLDWMGWMNPFRNNAGYAQKFQGRVTVTWDTSISTAYMELSSLSSEDTAIYYCAREHGSSWGFFDYWGQGTLVTVSS
VL: not shown
notes: human IgG4; also called REGN5715; MAB2
With B4, in assay [17], the “100 nM natural Bet v 1 Bound (RU)” value was determined as 83 RU, binding was put at a Kd of 2.43 nM and the t½ is 6.3 min. Also, in assay [21], the “blockade of basophil activation (phospho-Erk MFI in basophils of PBMCs of birch allergic donors, 100 pM natural Bet v 1)” value worked out at 70%. Moreover, in [18], the “100 nM natural Bet v 1 Bound (RU)” value was 72 RU and the Kd is 1.09 nM.

B5: H4H17001P (antibody, human IgG4, V domains shown)
VH: QVQLVESGGGLVKPGGSLRLSCAASGFTFSDYYMNWIRQAPGKGLEWISLISSSGSAIYYSDSVKGRFTISRDNARKSLYLQVNSLRAEDTAVYYCARDRGEWALGAYYYGLDVWGQGTTVTVSS
VL: DIVMTQSPLSLPVTPGEPASISCRSSQSLLHSDGYNYLDWYLQKSGQSPQLLIYLGSNRASGVPDRFSGSGSGTDFTLKISRMEAEDVGVYYCMQALQTPYTFGQGTKLEIK
notes: human IgG4 Fc (H4H prefix)
For the molecule B5, in assay [20], the binding result was “no binding (tested: 50 µg/mL)”.
